Data published in patent US20200147215A1, “DRUG CONJUGATES WITH PHOTOCLEAVABLE SOLUBILITY MODULATORS” (priority 2017, published 2020).
Where two headings read alike, the source gives them in different places.

Legend:
[1] = Isoelectric point (IEF gel); type: physicochemical; details: FIG. 33
[2] = Photolysis of G2PEA-insulin dissolved in DMSO, analyzed by gel; type: physicochemical; details: over the irradiation time period, FIG. 35
Source text: The lower band is insulin.

[3] = Solubility of non-polar-tag insulin conjugates vs insulin (shaken with PBS pH 7.2, supernatant analyzed)
Experimental: (§1) Diazo was allowed to react for 24 hours. Reaction progress may be monitored on HPLC with a C18 column.
It was hypothesized solubility would be further lowered by the Val-Val-Val peptide being allowed to pack more efficiently than in the Val-Pro-Ile peptide.

[4] = Photolysis release of insulin from conjugate vs irradiation time; type: physicochemical
Experimental: as §1

[5] = stated in description, no experiment; cited from earlier work
[6] = Quantitative solubility of G2PEA-insulin and insulin in buffer at pH 7.2 and pH 5.4

Substance	isoelectric point [1]	conversion to insulin upon irradiation [2]	Solubility mM ([3]; Table 3)	Solubility mg/ml ([3]; Table 3)	Solubility mM ([3]; Table 5)	Solubility mg/ml ([3]; Table 5)	photolysis release rate constant k ([4]; FIG. 7, insulin released into solution v. irradiation time)	photolysis release rate constant k ([4]; fit B=A0(1−exp(−kt)), FIG. 19)	isoelectric point [5]	Solubility ([6]; Table 7, pH 7.2 buffer)	Solubility ([6]; Table 8, pH 5.4)
G2PEA-insulin drug conjugate: drug conjugate of insulin and glutamic acid condensed with two 1-(2-Aminoethyl)pyrrolidine moieties (G2PEA), photocleavable link	~7	all of the G2PEA insulin is consumed, and insulin is released	–	–	–	–	–	–	–	–	–
CD-insulin: drug conjugate of insulin and a cyclododecyl amine non-polar moiety joined by a DMNPE-type photocleavable group	–	–	0.009 mM	0.06 mg/mL	0.009 mM	0.06 mg/mL	0.154 min-	0.154 min⁻¹	–	–	–
insulin [reference compound]	–	–	0.708 mM	4.11 mg/mL	0.708 mM	4.11 mg/mL	–	–	~5.4	1053.3 ± 158.1 µM	17.1 ± 2.1 µM
